According to patent US5677146A, “Human amyloid protein precursor homolog and kunitz-type inhibitor” (Zymogenetics, Inc., priority 1995, dated 1997):

Experiments:
Type in all cases: biochemical
Trypsin = experiment: Protease inhibitory activity assay, trypsin; details: 1 μM inhibitor; trypsin 8 nM; H-D-Val-Leu-Lys-pNA 0.6 mM; 25° C.
Description: Trypsin (8 nM) H--D--Val--Leu--Lys--pNA
(§1) Inhibition assays were performed in microtiter wells in a total volume of 300 μl in 10 mM NaCl, 50 mM Tris-HCl (pH 7.4), 0.01% TWEEN80 (Polyoxyethylenesorbitan monoleate). The reactions were incubated at 25° C. for ten minutes after which the appropriate chromogenic substrate was added to the final concentration listed in Table 2 and the final reaction was incubated for thirty minutes at 25° C. Amidolytic activity was measured at 405 nm or by fluorescence Em at 460 nm.

Chymotrypsin = experiment: Protease inhibitory activity assay, chymotrypsin; details: 1 μM inhibitor; chymotrypsin 2.5 nM; MeO-Suc-Arg-Pro-Tyr-pNA 0.6 mM; 25° C.
Description: MeO--Suc--Arg--Pro--Tyr--pNA
as §1

[1] = system: GL Kallikrein (glandular kallikrein); experiment: Protease inhibitory activity assay, glandular kallikrein; details: 1 μM inhibitor; GL kallikrein 1 U/ml; H-D-Val-Leu-Arg-pNA 0.6 mM; 25° C.
Description: H--D--Val--Leu--Arg--pNA
(§2) Abbreviations in Table 2: rec. refers to recombinant, GL kallikrein refer
(§3) to glandular kallikrein, and PL kallikrein refers to plasma kallikrein.
as §1

Plasmin = target: T1, Plasmin (Homo sapiens, UniProt P00747); experiment: Protease inhibitory activity assay, plasmin; details: 1 μM inhibitor; plasmin 10 nM; H-D-Val-Leu-Lys-pNA 0.6 mM; 25° C.
T1 construct: Plasmin (10 nM); purchased Kabi
T1 sequence (P00747 97-580 limits assumed): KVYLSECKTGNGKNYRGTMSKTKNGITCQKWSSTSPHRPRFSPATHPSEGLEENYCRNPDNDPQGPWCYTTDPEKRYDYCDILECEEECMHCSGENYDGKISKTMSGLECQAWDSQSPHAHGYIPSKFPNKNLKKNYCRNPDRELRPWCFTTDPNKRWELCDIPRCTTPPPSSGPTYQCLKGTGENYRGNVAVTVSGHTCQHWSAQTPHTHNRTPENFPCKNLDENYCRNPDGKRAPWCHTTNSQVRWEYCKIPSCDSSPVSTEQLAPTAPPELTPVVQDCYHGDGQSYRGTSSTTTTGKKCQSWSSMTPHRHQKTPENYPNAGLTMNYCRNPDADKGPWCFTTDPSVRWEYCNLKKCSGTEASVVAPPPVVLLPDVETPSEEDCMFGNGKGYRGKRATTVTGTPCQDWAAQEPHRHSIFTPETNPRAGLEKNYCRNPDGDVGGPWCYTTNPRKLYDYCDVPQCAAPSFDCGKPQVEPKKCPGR
T1 sequence (P00747 581-810 limits assumed): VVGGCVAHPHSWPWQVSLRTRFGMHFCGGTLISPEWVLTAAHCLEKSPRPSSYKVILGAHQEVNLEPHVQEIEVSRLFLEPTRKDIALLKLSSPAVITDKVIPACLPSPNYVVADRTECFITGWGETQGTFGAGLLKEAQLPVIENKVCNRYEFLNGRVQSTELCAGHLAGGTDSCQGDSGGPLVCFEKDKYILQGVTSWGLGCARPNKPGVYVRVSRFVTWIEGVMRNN
Description: H--D--Val--Leu--Lys--pNA
as §1

Urokinase = target: T2, Urokinase (Homo sapiens, UniProt P00749); experiment: Protease inhibitory activity assay, urokinase; details: 1 μM inhibitor; urokinase 5 nM; <Glu-Gly-Arg-pNA 0.6 mM; 25° C.
T2 construct: purchased Serono, Freigung, Germany
Description: as §1

[2] = target: T3, rec. Protein Ca (activated protein C) (Homo sapiens, UniProt P04070); experiment: Protease inhibitory activity assay, activated protein C; details: 1 μM inhibitor; rec. Protein Ca 5 nM; <Glu-Pro-Arg-pNA 0.6 mM; 25° C.
T3 construct: purchased Novo Nordisk A/S
T3 sequence (P04070 43-197 limits assumed): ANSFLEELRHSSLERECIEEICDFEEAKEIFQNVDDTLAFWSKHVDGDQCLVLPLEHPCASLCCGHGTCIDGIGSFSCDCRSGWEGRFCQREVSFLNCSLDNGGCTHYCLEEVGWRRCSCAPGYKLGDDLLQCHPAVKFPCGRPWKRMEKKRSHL
T3 sequence (P04070 212-461 limits assumed): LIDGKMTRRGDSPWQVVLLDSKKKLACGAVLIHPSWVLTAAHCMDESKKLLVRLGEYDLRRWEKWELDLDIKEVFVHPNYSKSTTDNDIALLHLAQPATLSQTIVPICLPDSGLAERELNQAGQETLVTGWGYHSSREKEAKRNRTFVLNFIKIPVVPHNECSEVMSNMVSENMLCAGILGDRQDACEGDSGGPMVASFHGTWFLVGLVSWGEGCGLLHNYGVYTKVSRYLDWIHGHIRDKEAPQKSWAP
Description: as §1
r.h. refers to recombinant human, h. refers to human, protein Ca refers t
activated protein C; APPH refers to the KunitzType inhibitor domain of […]

[3] = target: T4, PL Kallikrein (plasma kallikrein) (Homo sapiens, UniProt P03952); experiment: Protease inhibitory activity assay, plasma kallikrein; details: 1 μM inhibitor; PL kallikrein 3 nM; H-D-Pro-Phe-Arg-pNA 0.6 mM; 25° C.
T4 construct: purchased Kabi
T4 sequence (P03952 20-390 limits assumed): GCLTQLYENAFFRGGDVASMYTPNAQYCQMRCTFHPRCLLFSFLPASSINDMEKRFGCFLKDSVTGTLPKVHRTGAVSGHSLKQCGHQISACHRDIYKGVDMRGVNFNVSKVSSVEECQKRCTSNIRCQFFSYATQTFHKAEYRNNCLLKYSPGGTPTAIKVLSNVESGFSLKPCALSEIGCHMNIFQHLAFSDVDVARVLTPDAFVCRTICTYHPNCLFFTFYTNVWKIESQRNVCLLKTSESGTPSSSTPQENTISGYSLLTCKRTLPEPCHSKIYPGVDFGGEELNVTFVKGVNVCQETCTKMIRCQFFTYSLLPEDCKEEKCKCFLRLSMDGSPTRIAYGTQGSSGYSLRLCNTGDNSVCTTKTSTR
T4 sequence (P03952 391-638 limits assumed): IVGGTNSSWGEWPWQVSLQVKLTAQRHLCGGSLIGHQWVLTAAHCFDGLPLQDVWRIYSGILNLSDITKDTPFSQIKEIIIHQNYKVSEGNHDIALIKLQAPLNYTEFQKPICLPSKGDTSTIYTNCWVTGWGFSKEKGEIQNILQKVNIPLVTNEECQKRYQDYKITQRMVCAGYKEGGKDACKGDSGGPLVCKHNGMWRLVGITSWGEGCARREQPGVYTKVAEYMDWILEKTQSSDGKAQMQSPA
Description: (§4) H--D--Pro--Phe--Arg--pNA
as §2, §3, §1

human Factor XIIa = target: T5, human Factor XIIa (Homo sapiens, UniProt P00748); experiment: Protease inhibitory activity assay, Factor XIIa; details: 1 μM inhibitor; Factor XIIa 30 nM; H-D-Pro-Phe-Arg-pNA 0.6 mM; 25° C.
T5 construct: human Factor XIIa (30 nM); purchased Dr. Walt Kisiel, University of New Mexico, Albuquerque, NM
T5 sequence (P00748 20-372 limits assumed): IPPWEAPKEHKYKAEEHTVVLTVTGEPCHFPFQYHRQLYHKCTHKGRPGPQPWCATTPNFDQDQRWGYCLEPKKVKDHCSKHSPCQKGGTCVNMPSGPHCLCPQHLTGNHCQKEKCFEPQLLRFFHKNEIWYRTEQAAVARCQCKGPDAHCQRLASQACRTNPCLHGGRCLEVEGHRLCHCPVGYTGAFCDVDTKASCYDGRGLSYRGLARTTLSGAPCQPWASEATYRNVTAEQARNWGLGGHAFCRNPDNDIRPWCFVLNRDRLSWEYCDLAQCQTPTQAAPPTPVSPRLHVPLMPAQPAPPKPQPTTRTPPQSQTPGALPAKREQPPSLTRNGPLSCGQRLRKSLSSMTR
T5 sequence (P00748 373-615 limits assumed): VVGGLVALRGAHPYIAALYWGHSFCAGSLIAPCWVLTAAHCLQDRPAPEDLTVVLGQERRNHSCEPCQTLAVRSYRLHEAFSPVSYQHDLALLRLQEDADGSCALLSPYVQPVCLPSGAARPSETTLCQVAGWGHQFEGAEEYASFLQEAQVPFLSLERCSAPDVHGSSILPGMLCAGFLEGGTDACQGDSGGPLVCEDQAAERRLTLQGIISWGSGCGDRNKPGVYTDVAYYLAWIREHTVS
Description: human Factor XIIa (30 nM)
as §4, §1

human Factor XIa = target: T6, human Factor XIa (Homo sapiens, UniProt P03951); experiment: Protease inhibitory activity assay, Factor XIa; details: 1 μM inhibitor; Factor XIa 1 nM; Boc-Glu(OBzl)-Ala-Arg-MCA 0.12 mM; 25° C.
T6 construct: human Factor XIa (1 nM); purchased Dr. Kazuo Fujikawa, University of Washington, Seattle, WA
T6 sequence (P03951 19-387 limits assumed): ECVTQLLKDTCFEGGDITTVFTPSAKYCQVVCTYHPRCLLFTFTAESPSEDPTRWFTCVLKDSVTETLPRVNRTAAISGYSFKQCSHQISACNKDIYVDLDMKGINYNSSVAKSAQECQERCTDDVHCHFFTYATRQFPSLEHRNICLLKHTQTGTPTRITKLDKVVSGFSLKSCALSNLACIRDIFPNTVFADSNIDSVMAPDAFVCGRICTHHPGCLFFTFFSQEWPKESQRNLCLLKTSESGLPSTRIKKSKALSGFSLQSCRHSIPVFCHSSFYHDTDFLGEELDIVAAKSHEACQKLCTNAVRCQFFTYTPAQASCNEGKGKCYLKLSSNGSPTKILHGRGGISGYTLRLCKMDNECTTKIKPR
T6 sequence (P03951 388-625 limits assumed): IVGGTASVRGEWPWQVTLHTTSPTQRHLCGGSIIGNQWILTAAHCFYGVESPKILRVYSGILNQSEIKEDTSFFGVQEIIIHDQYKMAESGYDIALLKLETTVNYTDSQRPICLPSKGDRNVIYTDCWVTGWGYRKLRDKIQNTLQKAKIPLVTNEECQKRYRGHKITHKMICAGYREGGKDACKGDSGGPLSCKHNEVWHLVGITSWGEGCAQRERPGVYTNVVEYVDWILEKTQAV
Description: Boc--Glu(OBzl)--Ala--Arg--MCA
as §1

human Factor Xa = target: T7, human Factor Xa (Homo sapiens, UniProt P00742); experiment: Protease inhibitory activity assay, Factor Xa; details: 1 μM inhibitor; Factor Xa 3 nM; MeO-CO-CHA-Gly-Arg-pNA 0.3 mM; 25° C.
T7 construct: human Factor Xa (3 nM); purchased Dr. I. Schousboe, Copenhagen, Denmark
T7 sequence (P00742 41-179 limits assumed): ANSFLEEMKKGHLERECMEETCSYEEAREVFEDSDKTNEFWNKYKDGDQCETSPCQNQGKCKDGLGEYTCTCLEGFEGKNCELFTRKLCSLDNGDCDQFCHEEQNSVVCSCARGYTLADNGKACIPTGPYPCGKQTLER
T7 sequence (P00742 235-488 limits assumed): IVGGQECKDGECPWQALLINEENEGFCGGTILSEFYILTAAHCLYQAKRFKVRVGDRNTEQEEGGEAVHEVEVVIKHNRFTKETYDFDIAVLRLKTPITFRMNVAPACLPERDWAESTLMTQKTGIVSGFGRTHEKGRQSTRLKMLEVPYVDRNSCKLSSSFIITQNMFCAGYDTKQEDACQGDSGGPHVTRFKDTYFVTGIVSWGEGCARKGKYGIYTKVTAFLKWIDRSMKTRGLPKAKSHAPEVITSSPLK
Description: The reactions were incubated at 25° C. for ten minutes after which the appropriate chromogenic substrate was added to the final concentration listed in Table 2 and the final reaction was incubated for thirty minutes at 25° C. Amidolytic activity was measured at 405 nm or by fluorescence Em at 460 nm.

rec. human Factor VIIa = target: T8, rec. human Factor VIIa (Homo sapiens, UniProt P08709); experiment: Protease inhibitory activity assay, Factor VIIa; details: 1 μM inhibitor; Factor VIIa 300 nM; H-D-Ile-Pro-Arg-pNA 0.6 mM; 25° C.
T8 construct: rec. human Factor VIIa; purchased Novo Nordisk A/S
T8 sequence (P08709 61-212 limits assumed): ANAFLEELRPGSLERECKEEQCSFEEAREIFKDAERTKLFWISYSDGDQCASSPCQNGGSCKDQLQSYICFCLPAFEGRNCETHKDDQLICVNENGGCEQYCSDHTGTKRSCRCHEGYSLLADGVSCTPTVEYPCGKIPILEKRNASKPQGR
T8 sequence (P08709 213-466 limits assumed): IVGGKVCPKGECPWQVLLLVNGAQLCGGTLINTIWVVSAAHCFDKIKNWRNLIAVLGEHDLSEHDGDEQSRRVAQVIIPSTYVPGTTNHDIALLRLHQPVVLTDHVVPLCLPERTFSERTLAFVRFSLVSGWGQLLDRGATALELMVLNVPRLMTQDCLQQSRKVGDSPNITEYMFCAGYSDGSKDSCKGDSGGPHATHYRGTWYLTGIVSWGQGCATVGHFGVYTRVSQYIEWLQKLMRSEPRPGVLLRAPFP
Description: H--D--Ile--Pro--Arg--pNA
as §1

Leukocyte Elastase = target: T9, Leukocyte Elastase (Homo sapiens, UniProt P08246); experiment: Protease inhibitory activity assay, leukocyte elastase; details: 1 μM inhibitor; MeO-Suc-Ala-Ala-Pro-Val-pNA 0.6 mM; 25° C.
T9 construct: purified at Novo Nordisk A/S; tissue Novo Nordisk A/S (purified there); host or cells: leukocytes
T9 sequence (P08246 30-267): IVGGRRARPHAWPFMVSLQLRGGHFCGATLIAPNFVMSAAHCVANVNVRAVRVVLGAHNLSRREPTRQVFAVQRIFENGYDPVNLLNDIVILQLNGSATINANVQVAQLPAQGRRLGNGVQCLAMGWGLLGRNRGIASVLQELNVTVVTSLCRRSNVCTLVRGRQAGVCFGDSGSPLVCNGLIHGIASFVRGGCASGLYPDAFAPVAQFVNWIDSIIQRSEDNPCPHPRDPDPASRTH
Description: MeO--Suc--Ala--Ala--Pro--Val--pNA
(§5) purified at Novo Nordisk A/S
as §1

Cathepsin G = target: T10, Cathepsin G (Homo sapiens, UniProt P08311); experiment: Protease inhibitory activity assay, cathepsin G; details: 1 μM inhibitor; Suc-Ala-Ala-Pro-Phe-pNA 0.6 mM; 25° C.
T10 construct: purified at Novo Nordisk A/S; tissue Novo Nordisk A/S (purified there); host or cells: leukocytes (by the cited method)
T10 sequence (P08311 21-255): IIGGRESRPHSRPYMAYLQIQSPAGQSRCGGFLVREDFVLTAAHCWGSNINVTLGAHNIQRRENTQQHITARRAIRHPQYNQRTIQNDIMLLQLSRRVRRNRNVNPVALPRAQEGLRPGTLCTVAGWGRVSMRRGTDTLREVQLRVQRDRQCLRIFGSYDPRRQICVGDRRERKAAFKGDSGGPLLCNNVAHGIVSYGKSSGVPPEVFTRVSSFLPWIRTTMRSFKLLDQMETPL
Description: Cathepsin G Suc--Ala--Ala--Pro--Phe--pNA
as §5
(0.6 mM) (SEQ ID NO: 19)
as §1

B1: APPH: Kunitz-type inhibitor domain of the human amyloid protein precursor homologue (SEQ ID NO:2 region 53/56/57-110), expressed in yeast (protein)
chain: GYIEALAANAGTGFAVAEPQIAMFCGKLNMHVNIQTGKWEPDPTGTKSCFETKEEVLQYCQEMYPELQITNVMEANQRVSIDNWCRRDKKQCKSRFVTPFKCLVGEFVSDVLLVPEKCQFFHKERMEVCENHQHWHTVVKEACLTQGMTLYSYGMLLPCGVDQFHGTEYVCCPQTKIIGSVSKEEEEEDEEEEEEEDEEEDYDVYKSEFPTEADLEDFTEAAVDEDDEDEEEGEEVVEDRDYYYDTFKGDDYNEENPTEPGSDGTMSDKEITHDVKAVCSQEAMTGPCRAVMPRWYFDLSKGKCVRFIYGGCGGNRNNFESEDYCMAVCKAMIPPTPLPTNDVDVYFETSADDNEHARFQKAKEQLEIRHRNRMDRVKKEWEEAELQAKNLPKAERQTLIQHFQAMVKALEKEAASEKQQLVETHLARVEAMLNDRRRMALENYLAALQSDPPRPHRILQALRRYVRAENKDRLHTIRHYQHVLAVDPEKAAQMKSQVMTHLHVIEERRNQILSLLYKVPYVAQEIQEEIDELLQEQRADMDQFTASISETPVDVRVSSEESEEIPPFHPFHPFPALPENEDTQPELYHPMKKGSGVGEQDGGLIGAEEKVINSKNKVDENMVIDETLDVKEMIFNAERVGGLEEERESVGPLREDFSLSS
% Inhibition, Trypsin (Trypsin): 99.6% | % Inhibition, Chymotrypsin (Chymotrypsin): 61% | % Inhibition, GI Kallikrein [1]: 97% | % Inhibition, Plasmin (Plasmin): 77% | % Inhibition, Urokinase (Urokinase): 2% | % Inhibition, r.h. Protein Ca [2]: 0% | % Inhibition, PL Kallikrein [3]: 69% | % Inhibition, h. Factor XIIa (human Factor XIIa): 6% | % Inhibition, h. Factor XIa (human Factor XIa): 99.8% | % Inhibition, h. Factor Xa (human Factor Xa): 0% | % Inhibition, r.h. Factor VIIa (rec. human Factor VIIa): 15% | % Inhibition, Leukocyte Elastase (Leukocyte Elastase): 4% | % Inhibition, Cathepsin G (Cathepsin G): 0%
